# Assay results from patent EP4653461A1 (DE NOVO BIOTHERAPEUTICS CO., LTD., dated 2025).
# Experiments:
# [1] = molecular target: T1, 6506GJ130-1A: Human NKP46 Recombinant Protein (His) (human, UniProt O76036 22-258, limits assumed); assay: competition ELISA, NKp46-His coated; competitor 2-3 at 20 ug/ml
# T1 construct: also called human NKp46 protein; not shown: His tag
# [2] = molecular target: T1, 6506GJ130-1A: Human NKP46 Recombinant …; assay: competition ELISA, NKp46-His coated; no competitor (Control)
# [3] = molecular target: T1, 6506GJ130-1A: Human NKP46 Recombinant …; assay: competition ELISA, NKp46-His coated; competitor 1-2 at 20 ug/ml
# [4] = molecular target: T1, 6506GJ130-1A: Human NKP46 Recombinant …; assay: competition ELISA, NKp46-His coated; competitor 1-8 at 20 ug/ml
# [5] = molecular target: T1, 6506GJ130-1A: Human NKP46 Recombinant …; assay: competition ELISA, NKp46-His coated; competitor 2-2 at 20 ug/ml
# [6] = molecular target: T1, 6506GJ130-1A: Human NKP46 Recombinant …; assay: competition ELISA, NKp46-His coated; competitor 1-10 at 20 ug/ml
# [7] = molecular target: T1, 6506GJ130-1A: Human NKP46 Recombinant …; assay: competition ELISA, NKp46-His coated; competitor 2-10 at 20 ug/ml
# [8] = molecular target: T1, 6506GJ130-1A: Human NKP46 Recombinant …; assay: SPR, Biacore 8K, antibody captured on Protein A chip, NKp46 as analyte
# [9] = molecular target: T1, 6506GJ130-1A: Human NKP46 Recombinant …; assay: competition ELISA, NKp46-His coated; competitor 2-5 at 20 ug/ml
# [10] = molecular target: T1, 6506GJ130-1A: Human NKP46 Recombinant …; assay: competition ELISA, NKp46-His coated; competitor 2-1 at 20 ug/ml
# [11] = molecular target: T1, 6506GJ130-1A: Human NKP46 Recombinant …; assay: competition ELISA, NKp46-His coated; competitor 2-7 at 20 ug/ml
# [12] = molecular target: T1, 6506GJ130-1A: Human NKP46 Recombinant …; assay: competition ELISA, NKp46-His coated; competitor 1-4-2 at 20 ug/ml
# T1 sequence (O76036 22-258 limits assumed): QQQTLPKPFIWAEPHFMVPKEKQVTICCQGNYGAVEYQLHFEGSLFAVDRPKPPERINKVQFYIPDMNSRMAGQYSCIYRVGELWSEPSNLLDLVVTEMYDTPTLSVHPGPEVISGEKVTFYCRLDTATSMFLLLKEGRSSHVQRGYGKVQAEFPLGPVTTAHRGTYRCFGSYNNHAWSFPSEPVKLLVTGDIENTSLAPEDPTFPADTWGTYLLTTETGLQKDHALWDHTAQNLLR
Binder,ELISA signal [1],ELISA signal [2],ELISA signal [3],ELISA signal [4],ELISA signal [5],ELISA signal [6],ELISA signal [7],Kd [8],koff [8],kon [8],ELISA signal [9],ELISA signal [10],ELISA signal [11],ELISA signal [12]
"21C9E9 (2-5) (antibody, IgG4, V domains shown, Hybridoma clone; made as mouse/human chimeric IgG4) VH: DVQLQESGPGLVKTSQSLSLTCSVTGYSITSDDYWNWIRQFPGNKLEWVGYISYDGSNNYNPSLKNRISITRDTSKNQFFLKLNSVTTEDTATYYCARLGYPAMDSWGQGTSVTVSS VL: DIKMTQSPSSMYASLGERVTITCKASQDINSYLSWFQQKPGKSPKTLIYRANRLVDGVPSRFSGSGSGQDYSLTISSLEFEDLGIYYCLQYDEFPWTFGGGTKLEIK",1.27,1.31,1.3,1.29,1.28,1.4,1.3,4.96 nM,0.000116 s⁻¹,23400 M⁻¹ s⁻¹,0.201,1.28,1.33,0.612
"32C9F4 (2-2) (antibody, IgG4, V domains shown, Hybridoma clone; made as mouse/human chimeric IgG4) VH: QVQLQQPGAELVKPGASVKLSCKASGYTFTSYWMHWVKQRPGQGLEWIGMIHPNSGVTKYNEKFKSKATLTVDKSSSTAYMQLSSLTSEDSAVYFCAGDGRFAYWGQGTLVTVSA VL: DIQMTQSPSSLSASLGERVSLTCRASQDIGSSLNWLQQEPDGTIKRLIYATSSLDSGVPKRFSGSRSGSDYSLTISSLESEDFVDYYCLQYASSPWTFGGGTKLEIK",0.092,1.34,1.05,1.37,0.093,0.159,0.096,1.03 nM,0.000542 s⁻¹,527000 M⁻¹ s⁻¹,1.2,0.241,0.098,0.931
"8A10C11 (2-7) (antibody, IgG4, V domains shown, Hybridoma clone; made as mouse/human chimeric IgG4) VH: QVQLQQPGAELVKPGASVKLSCKASGFTFTNYWMHWVKQRPGQGLEWIGMIHPNSGSTNYNEKFKSKATLTVDKSSSTAYMQLSSLTSEDSAVYYCAGGGRLDYWGQGTTLTVSS VL: DIQMTQSPSSLSASLGERVSLTCRASQDIGSSLNWLQQEPDGTIKRLIYATSSLDSGVPKRFSGSRSGSDYSLTISSLESEDFVDYYCLQYASSPFTFGSGTKLEIK",0.146,1.41,1.1,1.4,0.088,0.133,0.106,2.78 nM,0.00142 s⁻¹,511000 M⁻¹ s⁻¹,1.24,0.204,0.093,0.637
"8D5A6C1 (2-10) (antibody, IgG4, V domains shown, Hybridoma clone; made as mouse/human chimeric IgG4) VH: QVQLQQPGAELVKPGASVRLSCKAFGYTFTSYWMHWVKQRPGQGLEWIGMIHPNSGVTKYNEKFKSKATLTVDKSSSTAYMQLSSLTSEDSAVYFCAGDGRFAYWGQGTLVTVSA VL: DIQMTQSPSSLSASLGERVSLTCRASQDIGNSLNWLQQEPDGTIKRLIYATSSLDSGVPKRFSGSRSGSDYSLTISSLESEDFVDYYCLQYASSPWTFGGGTKLEIK",0.091,1.27,0.998,1.3,0.154,0.176,0.083,1.29 nM,0.000615 s⁻¹,476000 M⁻¹ s⁻¹,1.13,0.245,0.123,0.724
"45A10D5 (2-1) (antibody, IgG4, V domains shown, Hybridoma clone; made as mouse/human chimeric IgG4) VH: QVQLQQPGAELVKPGASVKLSCKASGYTFTSYWMHWVKQRPGQGLEWIGMIHPNSGSTNYNEKFKSKATLTVDKSSSTAYMQLSSLTSEDSAVYYCVYDGRFAYWGQGTLVTVSA VL: DIQMTQSPSSLSASLGERVSLTCRASQDIGSSLNWLQQEPDGTIKRLIYATSSLDSGVPKRFSGSRSGSDYSLTISSLESEDFVDYYCLQYASSPFTFGSGTKLEIK",0.093,1.63,1.12,1.6,0.087,0.087,0.1,30 nM,0.0113 s⁻¹,376000 M⁻¹ s⁻¹,1.32,0.097,0.077,0.658

# Results, then the binder that gave them:
ELISA signal [1],ELISA signal [2],ELISA signal [3],ELISA signal [4],ELISA signal [5],ELISA signal [6],ELISA signal [7],Kd [8],koff [8],kon [8],ELISA signal [9],ELISA signal [10],ELISA signal [11],ELISA signal [12],Binder
1.28,1.54,0.1,1.63,1.23,1.19,1.24,4.29 nM,0.00012 s⁻¹,27900 M⁻¹ s⁻¹,1.46,1.24,1.15,0.178,"u6506gj130-1-2 (1-2) (antibody, IgG4, V domains shown, Beacon screening clone; made as mouse/human chimeric IgG4 (mouse variable regions, human constant region)) VH: EVQLQQSGPELVKPGASVKISCQASGYTFTDYYLNWVKQSHGKSLEWIGDIDPHNGGTSYNQKFKDKATLTVDKSSSTAYMELRSLTSEDSAVYYCARFPIYYSGSSPMDYWGQGTSVTVSS VL: DIQMTQSPASLSASVGETVTITCRTNENIFSYLAWYQQKQGKSPQLLVYNAKTLAEGVPSRFSGSASGTQFSLKINTLQPEDFGSYYCQHHYGTPYTFGGGTKLEII"
0.092,1.6,1.04,1.71,0.086,0.095,0.097,9.34 nM,0.00229 s⁻¹,246000 M⁻¹ s⁻¹,1.44,0.121,0.08,0.895,"u6506gj130-1-10 (1-10) (antibody, IgG4, V domains shown, Beacon screening clone; made as mouse/human chimeric IgG4) VH: QVQLQQPGAELVKPGASVKLSCKASGYIFTSYWMHWVKQRPGQGLEWIGMIHPNSGSTNYNEKFKSKATLTVDKSSSTAYMQLSSLTSEDSAVYYCAREGNWARGYFEYWGQGTTLTVSS VL: DIKMTQSPSSMYASLGERVTITCKASQDINSYLSWFQQKPGKSPKTLIYRANRLVDGVPSRFSGSGSGQDYSLTISSLEYEDVGMYYCLQYDEFPYTFGGGTKLEIK"
0.785,1.44,0.1,1.24,0.829,0.662,0.691,18.3 nM,0.0038 s⁻¹,207000 M⁻¹ s⁻¹,0.852,0.764,0.686,0.082,"u6506gj130-1-4-vk2 (1-4-2) (antibody, IgG4, V domains shown, Beacon screening clone; made as mouse/human chimeric IgG4) VH: DVQLQQSVAELVRPGASVNLSCTASGFNIKNTYMHWVKQRPEQGLEWIGMIDPANGNTKYAPKFQGKATITADTSSNTAYLHLSSLTSEDTAIYYCARWAYDGYYESYFDYWGQGTTLTVSS VL: SIVMTQSPKFLLVSAGDRVTITCKASQSVSNDVAWYQQKPGQSPKLLIYYASNRYTGVPDRFTGSGYGTDFTFTISTVQAEDLAVYFCHQDYSSPFTFGSGTKLEIK"
1.35,1.45,1.61,0.111,1.43,1.45,1.34,11 nM,0.00866 s⁻¹,790000 M⁻¹ s⁻¹,0.197,1.4,1.39,1.18,"u6506gj130-1-8 (1-8) (antibody, IgG4, V domains shown, Beacon screening clone; made as mouse/human chimeric IgG4) VH: QVQLQQPGAELVRPGTSVKLSCKASGYTFTSYWMHWVKQRPGQGLEWIGVIDPSDSYTNYNQKFKGKATLTVDTSSSTAYMQLSSLTSEDSAVYYCARSSSAYYSNYEAYWGQGTLVTVSA VL: QIVLTQSPAIMSASPGEKVTISCSASSSVGYMFWYQQKPGSSPKPWIYRTSNLASGVPARFSGSGSGTSYSLTISSMEAEDAATYYCQQYHSYPPMWTFGGGTKLEIK"
